According to publication doi:10.1101/2021.12.01.470822:

Molecular target: ABD1 of PLS2 (human) (UniProt P13796)
Experiment: fluorescence polarisation

Chain of ABD1 of PLS2 (human) (P13796 98-375): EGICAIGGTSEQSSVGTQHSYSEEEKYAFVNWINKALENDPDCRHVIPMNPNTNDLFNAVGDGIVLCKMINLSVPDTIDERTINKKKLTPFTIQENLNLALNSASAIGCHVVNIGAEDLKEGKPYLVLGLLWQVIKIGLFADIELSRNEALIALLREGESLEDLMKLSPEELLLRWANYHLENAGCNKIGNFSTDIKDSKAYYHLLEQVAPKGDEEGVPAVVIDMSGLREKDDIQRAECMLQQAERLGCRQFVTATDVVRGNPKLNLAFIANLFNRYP

ABD2 of PLS2 with S406E (from UniProt P13796 1-627) (domain or fragment)
Kd: 2 µM
